Reference: patent US20250066483A1

Columns and labels:
[1] = target: canine PD-L1-His (canine); experiment: SPR (Biacore X100), cPD-L1-His captured by anti-histidine antibody on a CM5 chip, canine CD80-Ig as analyte
[2] = target: canine PD-L1-His (canine); experiment: SPR (Biacore X100), cPD-L1-His captured by anti-histidine antibody on a CM5 chip, canine PD-1-Ig as analyte

Row | Kd [1] | Kd [2] | Substance
1 | 0.0243 µM | – | canine CD80-Ig (Fc fusion)
2 | – | 0.0254 µM | canine PD-1-Ig (Fc fusion)
